Measurements from paper PMC13148777.

Columns and labels:
[1] = biological target: HAdV-D10 fiber protein (human adenovirus D 10 (HAdV-D10)); test: cryo-EM structure; purified HAdV-D10 virions; symmetry expansion, focused classification and refinement of penton and fiber shaft without symmetry (C1); 4.6 Å global, fiber shaft about 10 Å; AlphaFold3 fiber-penton model fitted as a rigid body
[2] = biological target: HAdV-D10 penton base (human adenovirus D 10 (HAdV-D10)); test: as above

Substance | stoichiometry N [1] | stoichiometry N [2]
HAdV-D10 fiber protein (natural protein) | 3 | –
HAdV-D10 penton base (natural protein) | – | 5
